What was measured:
Assay in all cases: SPOT array
[1] = target: T1, Yfr024 SH3 (LSB3_YEAST), P43603
T1 chain: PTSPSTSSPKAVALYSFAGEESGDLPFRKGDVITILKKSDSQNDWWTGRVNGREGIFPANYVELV

[2] = target: T2, Rvs167 SH3 (RV167_YEAST), P39743
T2 chain: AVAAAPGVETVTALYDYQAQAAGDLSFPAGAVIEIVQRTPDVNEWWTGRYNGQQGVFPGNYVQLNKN

[3] = target: T3, Boi1 SH3 (BOI1_YEAST), P38041
T3 chain: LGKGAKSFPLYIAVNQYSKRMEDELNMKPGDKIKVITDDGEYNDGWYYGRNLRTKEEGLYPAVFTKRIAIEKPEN

[4] = target: T4, Boi2 SH3 (BOI2_YEAST), P39969
T4 chain: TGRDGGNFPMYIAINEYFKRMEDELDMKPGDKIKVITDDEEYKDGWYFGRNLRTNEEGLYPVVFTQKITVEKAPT

[5] = target: T5, Yhr016c SH3 (YSC84_YEAST), P32793
T5 chain: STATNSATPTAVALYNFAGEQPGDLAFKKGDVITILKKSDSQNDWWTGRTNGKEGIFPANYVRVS

| Binder | normalised SPOT signal, Boehringer light units (BLU); mean over the file's lines of this peptide [1] | normalised SPOT signal, Boehringer light units (BLU); mean over the file's lines of this peptide [2] | normalised SPOT signal, Boehringer light units (BLU); mean over the file's lines of this peptide [3] | normalised SPOT signal, Boehringer light units (BLU); mean over the file's lines of this peptide [4] | normalised SPOT signal, Boehringer light units (BLU); mean over the file's lines of this peptide [5] |
| --- | --- | --- | --- | --- | --- |
| QPKPGNPLRNARLN [YMR191W 37-50] | 266 | 49.2 | 174 | 21.7 | 169 |
| QPLPTSPSKRFSSL [YOR372C 249-262] | 164 | 32.1 | 53.8 | 94.3 | 249 |
| QQKPAIPQKKSFLT [YPR171W 424-437] | 3880 | 42.5 | 170 | 71.9 | 101 |
| QQLPLEPLKPTATG [YOR329C 404-417] | 257 | 45.9 | 143 | 27.2 | 122 |
| QRHPKSPVKKPMTS [YCL014W 878-891] | 676 | 192 | 123 | 90.5 | 169 |
| QRLPGEPGREQAPN [YOR322C 391-404] | 61.7 | 2.1 | 103 | 14 | 118 |
| QRQPKRPKRYSLLL [YJR147W 216-229] | 5420 | 104 | 117 | 194 | 613 |
| QSNPTSPTKQTFTI [YBL085W 600-613] | 148 | 60.4 | 62.2 | 65.7 | 182 |
| QSPPRSPGRSPTRR [YLR086W 108-121] | 1890 | 906 | 33500 | 3450 | 408 |
| QSQPPRPPRPAANL [YGR268C 24-37] | 27400 | 105 | 577 | 16 | 11000 |
| QSTPTPPAKRLFLI [YKL165C 41-54] | 1420 | 35.4 | 56.9 | 48.8 | 146 |
| QTSPGQPRKGQNGS [YFR028C 427-440] | 118 | 64 | 157 | 22.6 | 177 |
| QTYPAQPPKIGNAF [YMR016C 219-232] | 117 | 33.9 | 42.7 | 35.1 | 263 |
| QVPPKSPEKSGWLY [YNL257C 304-317] | 0 | 23.7 | 11.9 | 22.9 | 117 |
| QYIPPPPPKYINSK [YDR207C 482-495] | 393 | 112 | 122 | 45.9 | 81.6 |
| QYYPEEPTKPTVKT [YGR019W 6-19] | 49.9 | 6.4 | 55.2 | 37.2 | 85.8 |
| RAPPPVPKKPSSRI [YIR003W 387-400] | 28900 | 29.1 | 129 | 42 | 501 |

— PMC314469, “Protein Interaction Networks by Proteome Peptide Scanning” (PLoS Biology, 2004)
